Biological target: c-Myc (UniProt P01106)
Assay: cell-based or functional assay

c-Myc, sequence (P01106 whole entry): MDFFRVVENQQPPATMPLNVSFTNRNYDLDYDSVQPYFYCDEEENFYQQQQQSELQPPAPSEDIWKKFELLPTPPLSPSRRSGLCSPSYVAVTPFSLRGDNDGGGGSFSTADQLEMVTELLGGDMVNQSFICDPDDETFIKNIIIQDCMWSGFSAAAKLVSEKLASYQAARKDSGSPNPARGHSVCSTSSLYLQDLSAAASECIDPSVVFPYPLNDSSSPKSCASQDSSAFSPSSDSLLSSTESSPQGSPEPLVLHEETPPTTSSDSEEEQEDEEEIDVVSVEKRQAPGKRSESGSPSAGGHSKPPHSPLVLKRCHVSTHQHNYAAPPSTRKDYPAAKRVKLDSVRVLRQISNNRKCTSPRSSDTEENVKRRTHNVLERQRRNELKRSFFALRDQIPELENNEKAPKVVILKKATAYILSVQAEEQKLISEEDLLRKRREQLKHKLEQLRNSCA

Substance | decrease in Myc reporter activity at 150 µM [%] | luciferase controlled by E-Box, A431 cells, 6 hours [µM] | decrease in Myc reporter activity at 400 µM [%]
CAD-H1 (Cadherin cell targeting peptide fused to H1) | < 75 | 75 | 
Int-H1 (Antenapedia cell targeting peptide fused to H1) |  | 200 | < 75
Tat-H1 (TAT cell targeting peptide fused to H1) |  | 500 | 
